{
  "source": "paper PMC3724859",
  "about": "(2013)",
  "molecules": {"B1": {"name": "HPrbs (histidine phosphocarrier protein) (protein)", "chain": "MKTQQFTVIDPLGIHARPASQLVAKATPFASAIEVRTEEKAANLKSILGVMGLALKQGSQFTLYVEGEDEDQAFEALATLLTEMGLAQ"}},
  "key": {"[1]": {"molecular_target": "EINsc H186D EIN (Streptomyces coelicolor) (UniProt Q9KZP1)", "settings": "cited from earlier work"}, "[2]": {"molecular_target": "EINsite peptides (Streptomyces coelicolor) (UniProt Q9KZP1)", "settings": "cited from earlier work"}, "[3]": {"molecular_target": "EINbsite peptide (active-site region of EIN^sc) (UniProt Q9KZP1)", "experiment": "ITC (Auto-ITC200) in two buffers of different ionisation enthalpy", "settings": "pH 7.0; 25 C; no added salt stated; 10 mM Mes (pH 7.0) and 10 mM Mops (pH 7.0); delta H ion 3.55 and 5.05 kcal/mol"}, "[4]": {"molecular_target": "N-terminal domain of enzyme I, wild type (EIN^sc) (UniProt Q9KZP1)", "experiment": "ITC (Auto-ITC200) in two buffers of different ionisation enthalpy", "settings": "pH 7.0; 25 C; no added salt stated; 10 mM Mes (pH 7.0) and 10 mM Mops (pH 7.0); delta H ion 3.55 and 5.05 kcal/mol"}, "[5]": {"molecular_target": "EINosite peptide (HPr-contacting region of EIN^sc) (UniProt Q9KZP1)", "experiment": "ITC (Auto-ITC200) in two buffers of different ionisation enthalpy", "settings": "pH 7.0; 25 C; no added salt stated; 10 mM Mes (pH 7.0) and 10 mM Mops (pH 7.0); delta H ion 3.55 and 5.05 kcal/mol"}, "[6]": {"molecular_target": "N-terminal domain of enzyme I, phosphomimetic mutant EINH186D H186D (UniProt Q9KZP1)", "experiment": "ITC (Auto-ITC200) in two buffers of different ionisation enthalpy", "settings": "pH 7.0; 25 C; no added salt stated; 10 mM Mes (pH 7.0) and 10 mM Mops (pH 7.0); delta H ion 3.55 and 5.05 kcal/mol"}, "[7]": {"molecular_target": "Histidine phosphocarrier protein HPr (HPr^sc)", "experiment": "not stated here (value quoted from ref. [19]; presumably ITC in several buffers)", "settings": "pH not stated; cited from earlier work"}, "[8]": {"molecular_target": "T1, EINH186D (enzyme I N-terminal domain) N-terminal domain (Streptomyces coelicolor, UniProt Q9KZP1)", "T1 chain": "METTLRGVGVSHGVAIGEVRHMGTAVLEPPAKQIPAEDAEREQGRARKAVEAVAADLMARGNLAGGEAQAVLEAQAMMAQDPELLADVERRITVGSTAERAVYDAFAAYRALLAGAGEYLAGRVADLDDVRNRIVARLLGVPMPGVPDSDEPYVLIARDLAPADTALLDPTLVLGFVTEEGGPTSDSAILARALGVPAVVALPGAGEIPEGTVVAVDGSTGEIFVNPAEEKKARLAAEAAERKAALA", "experiment": "ITC"}, "EINbsite peptide": {"molecular_target": "T2, EINbsite peptide (Streptomyces coelicolor)", "T2 chain": "FVTEEGGPTSHSAILARA-NH2", "experiment": "ITC"}, "[9]": {"molecular_target": "T3, EINbsite + EINosite equimolar peptide mixture (Streptomyces coelicolor, UniProt Q9KZP1, C-terminal amidation, equimolar mixture of both peptides)", "T3 chain 1": "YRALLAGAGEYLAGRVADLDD", "T3 chain 2": "FVTEEGGPTSHSAILARA", "experiment": "ITC"}, "EINosite peptide": {"molecular_target": "T4, EINosite peptide (Streptomyces coelicolor, C-terminal amidation)", "T4 chain": "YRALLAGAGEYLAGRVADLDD", "experiment": "ITC"}, "[10]": {"molecular_target": "T5, EINsc (enzyme I N-terminal domain) N-terminal domain (Streptomyces coelicolor, UniProt Q9KZP1)", "T5 chain": "T1 chain with D186H", "experiment": "ITC"}, "ITC dilution": {"molecular_target": "the molecule itself", "experiment": "ITC dilution"}},
  "note": "Changes are numbered by the printed parent chain. No end group written: not given here.",
  "data": [
    {"molecule": "HPrsc (from UniProt O50515)", "values": [
      {"measurement": "Kd", "setting": "[1]", "result": 10, "unit": "µM"},
      {"measurement": "Kd", "setting": "[2]", "result": 16, "unit": "µM"}
    ]},
    {"molecule": "Histidine phosphocarrier protein HPr (HPr^bs)", "values": [
      {"measurement": "n H", "setting": "[3]", "result": -0.31, "unit": "protons"},
      {"measurement": "n H", "setting": "[4]", "result": 0.17, "unit": "protons"},
      {"measurement": "n H", "setting": "[5]", "result": 0.28, "unit": "protons"},
      {"measurement": "n H", "setting": "[6]", "result": -0.31, "unit": "protons"}
    ]},
    {"molecule": "N-terminal domain of enzyme I, wild type (EIN^sc)", "values": [
      {"measurement": "n H", "setting": "[7]", "result": 0.52, "unit": "protons"}
    ]},
    {"molecule": "B1", "values": [
      {"measurement": "Kd", "setting": "[8]", "result": 2900, "unit": "nM"},
      {"measurement": "Kd", "setting": "EINbsite peptide", "result": 3.9, "unit": "µM"},
      {"measurement": "Kd", "setting": "[9]", "result": 4.8, "unit": "µM"},
      {"measurement": "Kd", "setting": "EINosite peptide", "result": 3000, "unit": "nM"},
      {"measurement": "Kd", "setting": "[10]", "result": 1900, "unit": "nM"},
      {"measurement": "Kd", "setting": "ITC dilution", "result": 6.5, "unit": "µM"}
    ]}
  ]
}
